Experimental data reported in paper PMC3798688, “A Structural Basis for BRD2/4-Mediated Host Chromatin Interaction and Oligomer Assembly of Kaposi Sarcoma-Associated Herpesvirus and Murine Gammaherpesvirus LANA Proteins” (PLoS Pathogens, 2013).

B1: kLANA(1013–1149) (domain or fragment)
chain: GSRYQQPPVPYRQIDDCPAKARPQHIFYRRFLGKDGRRDPKCQWKFAVIFWGNDPYGLKKLSQAFQFGGVKAGPVSCLPHPGPDQSPITYCVYVYCQNKDTSKKVQMARLAWEASHPLAGNLQSSIVKFKKPLPLTQPG
notes: source: E. coli BL21(DE3), purified (Ni-NTA with guanidine gradient, thrombin cleavage)
B2: mLANA(124–260) (domain or fragment)
chain: GSKRYSRYQKPHNPSDPLPKKYQGMRRHLQVTAPRLFDPEGHPPTHFKSAVMFSSTHPYTLNKLHKCIQSKHVLSTPVSCLPLVPGTTQQCVTYYLLSFVEDKKQAKKLKRVVLAYCEKYHSSVEGTIVKAKPYFPLPE
notes: as for B1
B3: kLANA(996–1153) (domain or fragment)
chain: GSGVRMRRVPVTHPKKPHPRYQQPPVPYRQIDDCPAKARPQHIFYRRFLGKDGRRDPKCQWKFAVIFWGNDPYGLKKLSQAFQFGGVKAGPVSCLPHPGPDQSPITYCVYVYCQNKDTSKKVQMARLAWEASHPLAGNLQSSIVKFKKPLPLTQPGENQG
notes: as for B1
B4: 15N-BRD2 ET(632–713), with N-terminal GSGS (domain or fragment)
chain: GSGSDSEEEEESRPMSYDEKRQLSLDINKLPGEKLGRVVHIIQAREPSLRDSNPEEIEIDFETLKPSTLRELERYVLSCLRKKPRK
notes: also called 15N-BRD2(632–713); source: E. coli BL21(DE3), purified (Ni-NTA with guanidine gradient, thrombin cleavage)

Legend:
[1] = target: the molecule itself; test: asymmetric field flow fractionation with multi-angle static light scattering; 40 µg protein per run; 10 mM bis-tris-Cl pH 6.5, 50 mM NaCl, 0.01% NaN3
crystal structure = target: the molecule itself; test: crystal structure
kLANA(996–1153) = target: B3; test: NMR titration; conditions: both partners purified

| Binder | stoichiometry N [1] | stoichiometry N (crystal structure) | binding result (kLANA(996–1153)) |
| --- | --- | --- | --- |
| B1 | 2 | 10 | – |
| B2 | – | 2 | – |
| B3 | – | 8 | – |
| B4 | – | – | binds |
